Key:
BSA = target: T1, BSA (Bos taurus, UniProt P02769); assay: ELISA; 96-well plate coated with 1 μg/ml Ndel1-MBP or BSA; purified nanobodies at 2 μg/ml in 2% skim milk in PBS/0.05% Tween-20, 4 h at room temperature; detected by anti-His-tag antibody; settings: both partners purified
T1 construct: BSA (serum albumin), negative control coating in ELISA

Npm2 (nucleoplasmin) [1] = target: T2, Npm2 (nucleoplasmin) (Xenopus laevis, UniProt P05221); assay: affinity purification with mass spectrometry; purified His-tagged nanobody incubated with Xenopus embryo lysate (1% Triton X100 lysis buffer), captured on His60 Ni Superflow resin overnight at 4°C, SDS-PAGE, SimplyBlue staining, 170 kDa band cut out for LC-MS/MS; settings: one partner purified
T2 construct: predicted molecular weight 22 kDa, found as a 170 kDa band in SDS-PAGE; it was not measured here; also called 170 kDa band; source: endogenous, Xenopus laevis embryo lysate; copies: 10

Npm2 (nucleoplasmin) [2] = target: T2, Npm2 (nucleoplasmin); assay: far-Western, overlay or dot blot; immunoblot: Xenopus embryo lysates of different stages on 10% SDS-PAGE, PVDF membrane probed overnight at 4°C with purified His-tagged nanobody (0.2-3 μg/ml), detected by anti-His6 antibody; settings: one partner purified

T1 sequence (P02769 25-607): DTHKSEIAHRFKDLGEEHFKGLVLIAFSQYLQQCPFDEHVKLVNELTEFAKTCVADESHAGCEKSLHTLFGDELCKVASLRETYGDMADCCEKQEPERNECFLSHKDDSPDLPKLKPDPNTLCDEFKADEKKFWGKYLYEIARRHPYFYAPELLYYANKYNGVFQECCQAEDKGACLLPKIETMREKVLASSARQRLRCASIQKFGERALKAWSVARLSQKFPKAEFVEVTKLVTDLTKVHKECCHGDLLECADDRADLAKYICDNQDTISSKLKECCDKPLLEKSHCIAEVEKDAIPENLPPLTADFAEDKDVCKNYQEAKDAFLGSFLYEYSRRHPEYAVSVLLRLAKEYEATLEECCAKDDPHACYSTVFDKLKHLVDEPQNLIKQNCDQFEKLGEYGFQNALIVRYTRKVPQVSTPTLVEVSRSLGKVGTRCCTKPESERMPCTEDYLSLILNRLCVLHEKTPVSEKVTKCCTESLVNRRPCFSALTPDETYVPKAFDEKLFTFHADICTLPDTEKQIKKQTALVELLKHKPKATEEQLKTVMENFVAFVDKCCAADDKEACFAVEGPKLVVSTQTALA
T2 sequence (P05221 whole entry): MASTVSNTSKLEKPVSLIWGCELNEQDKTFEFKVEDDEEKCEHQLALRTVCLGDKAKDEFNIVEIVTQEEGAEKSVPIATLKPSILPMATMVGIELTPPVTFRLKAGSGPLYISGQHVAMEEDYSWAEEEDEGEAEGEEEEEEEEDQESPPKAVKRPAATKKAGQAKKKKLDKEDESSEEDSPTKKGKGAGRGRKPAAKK

Binder	binding result (BSA)	other results
NbG6 (VHH, nanobody from the semi-synthetic non-immune llama library Nomad#1; His6-tagged alkaline phosphatase fusion from pecan16; source: E. coli BL21Star periplasm (pecan16), purified (IMAC)) VHH: DVQLQASGGGLVQPGASLRLSCVSTRNTFSIDPMSWYRRAPGKGLEWVSGISNRGGSTSYADSVKGRFTISRDNIKSTLYLQMNSLKPEDTAVYYCNADASRWGSWGQGTQVTVSS	no binding (tested: 2 μg/ml)	
NbG12 (VHH, nanobody from the immune llama library; Nucleus-staining nanobody; source: bacterial periplasm (pecan126 phagemid clone), purified (His60-Ni-Superflow resin)) VHH: VQLQASGGGLVQAGSSRRLYCAFSGDTFNGRPMGWFRQAPGKEREFVATISASGGRTYYAGSVLGRFTISRDNTRNTVSLQMNNLTPEDTAVYYCAAKRPTALSDNYDYKTENEYNYWGQGTQVTVS		binding result (Npm2 (nucleoplasmin) [1]): binds
NbE2 (VHH, nanobody from the semi-synthetic non-immune llama library Nomad#1; His6-tagged alkaline phosphatase fusion from pecan16; source: E. coli BL21Star periplasm (pecan16), purified (IMAC)) VHH: QVKLQQSGGGSVQVGGSLRLSCTASGSAFIINTMSWYRRAPGKQRELVATITRRGTTNYADSVKGRFTISRDNAENTVDLHMNSLKPEDTAVYYCKGYRADWMTDYWGQGTQVTVSS	no binding (tested: 2 μg/ml)	
NbE9 (VHH, nanobody from the semi-synthetic non-immune llama library Nomad#1; His6-tagged alkaline phosphatase fusion from pecan16; also called AP-NbE9; 6His-AP-NbE9; source: E. coli BL21Star periplasm (pecan16), purified (IMAC); not shown: alkaline phosphatase, C-terminal, kept) VHH: QVKLQESGGGSVQHGGSLRLSCVASGLSFSNHWMYWVRQAQGKGLEWVSSINPSGSFTSYTDSAKGRFTISKANDGHTVYLQMNNLKPEDTGVYYCGLGSWSELEYSYSYWGRGTQVTVSS	no binding (tested: 2 μg/ml)	
NbE7 (VHH, nanobody from the semi-synthetic non-immune llama library Nomad#1; His6-tagged alkaline phosphatase fusion from pecan16; also called AP-NbE7; source: E. coli BL21Star periplasm (pecan16), purified (IMAC); not shown: alkaline phosphatase, C-terminal, kept) VHH: KVQLQASGGGLVQPGGSLQLSCVASGLSFSNYWMYWVRQAQGKGLEWVSSINPSGSFTSYTDSAKGRFTISKANDGHTVYLQMNNLKPEDTGVYYCGLGSWSELEYSYSYWGRGTQVTVSS	no binding (tested: 2 μg/ml)	
NbH3 (VHH, nanobody from the semi-synthetic non-immune llama library Nomad#1; His6-tagged alkaline phosphatase fusion from pecan16; source: E. coli BL21Star periplasm (pecan16), purified (IMAC)) VHH: EVKLQESGGGLAQSGGSLRLSCAPQLGAHTIVAMGWYRQPPDSQREFVAMLFANGITRYNEAVKGRFTISRDDAKNTMYLQMNNLKPEDTAVYYCKIYDHSIMTDYWGQGTQVTVSS	no binding (tested: 2 μg/ml)	
NbN39 (VHH, nanobody from the immune llama library; Nucleus-staining nanobody; used as negative control in the Ndel1 ELISA; source: bacterial periplasm (pecan126 phagemid clone), purified (IMAC)) VHH: VQLQASGGGLVQAGGSLRLSCTFSGGTFNGRNMGWFRQAPGKEREFAATISASGGRTYYAESVLGRFTISRDNARNTVYLQMNNLTPEDTAVYFCAAKRPTRLSENYDYKTENDYDYWGQGTQVTVS		binding result (Npm2 (nucleoplasmin) [2]): binds

From article PMC6497274, “Isolation of nanobodies against Xenopus embryonic antigens using immune and non-immune phage display libraries” (PLoS ONE, 2019)
